This assay deals with endogenous β-catenin (human) (UniProt P35222). Put plainly: cell-based or functional assay.
Sequence of endogenous β-catenin (human) (P35222 2-781 limits assumed): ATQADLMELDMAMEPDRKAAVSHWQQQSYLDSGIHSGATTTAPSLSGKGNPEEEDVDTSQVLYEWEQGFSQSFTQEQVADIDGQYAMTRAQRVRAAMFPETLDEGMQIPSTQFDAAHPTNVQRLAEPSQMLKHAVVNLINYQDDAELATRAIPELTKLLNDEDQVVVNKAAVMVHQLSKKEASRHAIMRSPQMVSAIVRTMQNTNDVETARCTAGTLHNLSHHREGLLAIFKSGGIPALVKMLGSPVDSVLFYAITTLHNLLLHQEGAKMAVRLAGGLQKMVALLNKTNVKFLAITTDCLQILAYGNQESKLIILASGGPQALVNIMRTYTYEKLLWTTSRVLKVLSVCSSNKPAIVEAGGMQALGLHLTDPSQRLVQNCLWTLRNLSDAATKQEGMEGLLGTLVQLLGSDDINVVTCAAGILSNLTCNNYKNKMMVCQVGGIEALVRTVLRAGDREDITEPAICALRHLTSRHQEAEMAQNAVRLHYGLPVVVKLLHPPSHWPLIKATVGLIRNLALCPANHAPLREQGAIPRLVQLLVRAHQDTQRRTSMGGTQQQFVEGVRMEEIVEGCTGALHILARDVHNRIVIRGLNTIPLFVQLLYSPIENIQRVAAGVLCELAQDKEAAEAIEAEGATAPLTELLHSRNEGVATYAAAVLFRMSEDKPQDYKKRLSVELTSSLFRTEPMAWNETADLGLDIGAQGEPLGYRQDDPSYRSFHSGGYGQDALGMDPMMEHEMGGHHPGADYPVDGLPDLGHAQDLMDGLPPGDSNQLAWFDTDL

With “SIRT1 overexpressed from pBABE-Puro-hSir2(SIRT1) (from UniProt Q96EB6 2-747)”, the fold decrease in Super8XTopflash-Luciferase-PEST reporter activity in DLD1 cells came to 2 fold.

(Values after patent US20110009474A1, “SIRTUIN BASED METHODS AND COMPOSITIONS FOR TREATING BETA-CATENIN-RELATED CONDITIONS” (President and Fellows of Harvard College, priority 2007, published 2011).)
